# Measured values: the RNAGym collection of RNA variant scans (doi:10.1073/pnas.2313332121)
# B1: TPR t1 (parent)
# chain: GACCAAUCUGCCCUCAGAGCUCGAGAACAUCUUCGGAUGCAGAGGAGGCAGGCUUCGGUGGCGCGAUAGCGCCAACGUCCUCAACCUCCAAUGCAUCCCACCACAUGAUGAUGCCUGAAGAGCCUUGGUUUUUUG
# Variants of: B1
# Assay: polymerase ribozyme fitness, log enrichment relative to wild type (log ratio); higher = more active; in vitro selection for triplet polymerase activity
# Method in brief: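 Mutant libraries were PCR-built and transcribed for each subunit of a heterodimeric triplet polymerase ribozyme and selected for one round in triplicate at −7 °C, frozen, before gel excision of extended constructs and streptavidin-bead capture. Input and output libraries were Illumina-sequenced, keeping genotypes with ≥10 input reads and ≥1 read per output. Fitness is a logarithmic ratio of genotype to wild-type enrichment, in base 2, using inverse-variance-weighted replicate averages.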
row,Variant,polymerase ribozyme fitness (log ratio)
1,GACCAAUCUGCCCUCAGAGCUCGAGAACAUCUUCGGAUGCAGAGGAGGCAGGCUUCGGUGGCGCGAUAGCGCCAACGUCCUCAACCUCCAAUGCAUCCCACCACAUGAUGCUGCCUGAAGAGCCUUCGUUUUUUG,-0.199
2,GACCAAUCUGCCCUCAGAGCUCGAGAACAUCUUCGGAUGCAGAGGAGGCAGGCUUCGGUGGCGCGAUAGCGCCAACGUCCUCAACCUCCAAUGCAUCCCACCACAUGAUGCUGCCUGAAGAGCUUUGCAUUUUUG,-3.3
3,GACCAAUCUGCCCUCAGAGCUCGAGAACAUCUUCGGAUGCAGAGGAGGCAGGCUUCGGUGGCGCGAUAGCGCCAACGUCCUCAACCUCCAAUGCAUCCCACCACAUGAUCAUGCCUGAAGAGUCUUGGUUUUUUG,-4.69
4,GACCAAUCUGCCCUCAGAGCUCGAGAACAUCUUCGGAUGCAGAGGAGGCAGGCUUCGGUGGCGCGAUAGCGCCAACGUCCUCAACCUCCAAUGCAUCCCACCACAUGAUAUUGCCUGAAGAGCCUUGGUUUUUUG,-1.9
5,GACCAAUCUGCCCUCAGAGCUCGAGAACAUCUUCGGAUGCAGAGGAGGCAGGCUUCGGUGGCGCGAUAGCGCCAACGUCCUCAACCUCCAAUGCAUCCCACCACAGGAUGAUGCCUGAACAGCCUUGGUUUUUUG,-0.678
6,GACCAAUCUGCCCUCAGAGCUCGAGAACAUCUUCGGAUGCAGAGGAGGCAGGCUUCGGUGGCGCGAUAGCGCCAACGUCCUCAACCUCCAAUGCAUCCCACCACAUGACGUUGCCUGAAGAGCCUUGGUUUUUUG,-4.13
7,GACCAAUCUGCCCUCAGAGCUCGAGAACAUCUUCGGAUGCAGAGGAGGCAGGCUUCGGUGGCGCGAUAGCGCCAACGUCCUCAACCUCCAAUGCAUCCCACCACAUGAUUAUGCCUGAAGAGCCUUGGUCUUUUG,-1.04
8,GACCAAUCUGCCCUCAGAGCUCGAGAACAUCUUCGGAUGCAGAGGAGGCAGGCUUCGGUGGCGCGAUAGCGCCAACGUCCUCAACCUCCAAUGCAUCCCACCACAUGAUUAUGCCUGAAGAGCCUUGGUAUUUUG,-1.27
9,GACCAAUCUGCCCUCAGAGCUCGAGAACAUCUUCGGAUGCAGAGGAGGCAGGCUUCGGUGGCGCGAUAGCGCCAACGUCCUCAACCUCCAAUGCAUCCCACCACAUAAUGUUGCCUGAAGAGCCUUGGUUUUUUG,-5.27
10,GACCAAUCUGCCCUCAGAGCUCGAGAACAUCUUCGGAUGCAGAGGAGGCAGGCUUCGGUGGCGCGAUAGCGCCAACGUCCUCAACCUCCAAUGCAUCCCACCACAUGAAGAUGUCUGCAGAGCCUUGGUUUUUUG,-5.26
11,GACCAAUCUGCCCUCAGAGCUCGAGAACAUCUUCGGAUGCAGAGGAGGCAGGCUUCGGUGGCGCGAUAGCGCCAACGUCCUCAACCUCCAAUGCAUCCCACCACAUGAUGGUGCCUGAAGAGCAUUGGUUUUUUG,1.23
12,GACCAAUCUGCCCUCAGAGCUCGAGAACAUCUUCGGAUGCAGAGGAGGCAGGCUUCGGUGGCGCGAUAGCGCCAACGUCCUCAACCUCCAAUGCAUCCCACCACAUGAUGCUGCCUGAAGAACCUUGGUUUUUUG,-0.308
13,GACCAAUCUGCCCUCAGAGCUCGAGAACAUCUUCGGAUGCAGAGGAGGCAGGCUUCGGUGGCGCGAUAGCGCCAACGUCCUCAACCUCCAAUGCAUCCCACCACAUCAUGAUGCAUGAAGAGCCUUGGUUUUUUG,-6.69
14,GACCAAUCUGCCCUCAGAGCUCGAGAACAUCUUCGGAUGCAGAGGAGGCAGGCUUCGGUGGCGCGAUAGCGCCAACGUCCUCAACCUCCAAUGCAUCCCACCACAUGAAGAUGCCUGAGGAGCCUUGGUUUUUUG,-5.27
15,GACCAAUCUGCCCUCAGAGCUCGAGAACAUCUUCGGAUGCAGAGGAGGCAGGCUUCGGUGGCGCGAUAGCGCCAACGUCCUCAACCUCCAAUGCAUCCCACCACAUGAUCAUGCCUGAAGCGCCUUGGUAUUUUG,-3.51
16,GACCAAUCUGCCCUCAGAGCUCGAGAACAUCUUCGGAUGCAGAGGAGGCAGGCUUCGGUGGCGCGAUAGCGCCAACGUCCUCAACCUCCAAUGCAUCCCACCACAUGAAGAUGCCUGAAGAGCCUUGGAUUUUUG,-6.83
17,GACCAAUCUGCCCUCAGAGCUCGAGAACAUCUUCGGAUGCAGAGGAGGCAGGCUUCGGUGGCGCGAUAGCGCCAACGUCCUCAACCUCCAAUGCAUCCCACCACAUGAAGACGCCUGAAGAGCCUUGGUAUUUUU,-5.01
18,GACCAAUCUGCCCUCAGAGCUCGAGAACAUCUUCGGAUGCAGAGGAGGCAGGCUUCGGUGGCGCGAUAGCGCCAACGUCCUCAACCUCCAAUGCAUCCCACCACAUGACGAUGCCUGAAGAGUCUUGGUUUUUUG,-4.63
19,GACCAAUCUGCCCUCAGAGCUCGAGAACAUCUUCGGAUGCAGAGGAGGCAGGCUUCGGUGGCGCGAUAGCGCCAACGUCCUCAACCUCCAAUGCAUCCCACCACAUGAUCAUGCCUGAAGAGCCUUGGUUCUUUG,-3.75
20,GACCAAUCUGCCCUCAGAGCUCGAGAACAUCUUCGGAUGCAGAGGAGGCAGGCUUCGGUGGCGCGAUAGCGCCAACGUCCUCAACCUCCAAUGCAUCCCACCACAUGAUAAUGCCUGAAGAGCCUUGGUUGUUUG,-1.96
21,GACCAAUCUGCCCUCAGAGCUCGAGAACAUCUUCGGAUGCAGAGGAGGCAGGCUUCGGUGGCGCGAUAGCGCCAACGUCCUCAACCUCCAAUGCAUCCCACCACAUGAUGCUGCCUGAAGAGCCUUGGUUCUUUG,0.44
